# US20210380703A1 (RIGEL PHARMACEUTICALS, published 2021)
# Positions count from the first letter of the chain named.
# B1: 374_E07 (antibody, V domains shown)
# VH: EVQLLESGGGLVQPGGSLRLSCAASGFTFSDYSMNWVRQAPGKGLEWVAGINYNGGYTSYADSVKGRFTISRDNSKNTLYLQMNSLRAEDTAVYYCARSANWHDTALDYWGQGTLVTVSS
# VL: DIQMTQSPSSLSASVGDRVTITCRASQSIITYVNWYQQKPGKAPKLVIYAATSRASGVPSRFSGSGSGTDFTLTISSLQPEDFATYYCQQSYNTPLTFGGGTKVEIK
# notes: VH/VL only
# B2: 374_H09 (antibody, V domains shown)
# VH: B1 VH with D31S, G50N, G55S, T58K
# VL: B1 VL with I30L, T31S, V33L, A51V, R54L, N93D, T94L
# notes: VH/VL only
# B3: 376_A06 (antibody, V domains shown)
# VH: B1 VH with S30D, D31S, A49S, G55S, N101T
# VL: B1 VL with I30L, T31S, V33L, A50Y, A51V, T52S, S53N, N93D, T94N
# notes: VH/VL only
# B4: 375_C12 (antibody, V domains shown)
# VH: B1 VH with D31S, G50N, S59G, N101T, A106H
# VL: B1 VL with I30L, V33L, V47L, N93D, T94L
# notes: VH/VL only
# B5: 375_E01 (antibody, V domains shown)
# VH: B1 VH with D31S, A49S, G55S, T58K
# VL: B1 VL with I30L, V33L, Y92D, N93D, T94S
# notes: VH/VL only
# B6: 374_H06 (antibody, V domains shown)
# VH: B1 VH with D31S, S33G, A49S, G50N, S59G
# VL: B1 VL with I30V, T31S, T94L
# notes: VH/VL only
# B7: 375_D07 (antibody, V domains shown)
# VH: B1 VH with D31S, S33G, G50N, G55S, S59G
# VL: B1 VL with V33L, V47L, N93D
# notes: VH/VL only
# B8: 374_H08 (antibody, V domains shown)
# VH: B1 VH with S30D, D31S, A49S, S59G, N101T, A106H
# VL: B1 VL with I30L, T31S, V33L, V47L, R54L, A55H, N93E, T94N
# notes: VH/VL only
# B9: 374_E08 (antibody, V domains shown)
# VH: B1 VH with D31S, S33G, T58K
# VL: B1 VL with I30L, T31S, V33L, V47L, A55H, N93D, T94L
# notes: VH/VL only
# B10: 374_F11 (antibody, V domains shown)
# VH: B1 VH with S30D, D31S, A49S, G50N, S59G
# VL: B1 VL with I30L, T31S, V33L, V47L, A51V, R54L, N93E, T94S
# notes: VH/VL only
# B11: 375_H12 (antibody, V domains shown)
# VH: B1 VH with D31S, S33G, T58K, S59G
# VL: B1 VL with I30L, V33L, V47L, A50Y, A51V, S53N, A55Q, N93S, T94I
# notes: VH/VL only
# B12: 374_F01 (antibody, V domains shown)
# VH: B1 VH with S30D, D31S, A49S, G50N, S59G
# VL: B1 VL with I30L, T31S, A55H, N93E, T94N
# notes: VH/VL only
# B13: 376_A04 (antibody, V domains shown)
# VH: B1 VH with S30D, D31S, A49S, G50N
# VL: B1 VL with I30V, V33L, N93D, T94S
# notes: VH/VL only
# B14: 375_A05 (antibody, V domains shown)
# VH: B1 VH with D31S, S33G, G50N, T58K, S59G
# VL: B1 VL with I30L, T31S, V33L, V47L, N93D, T94L
# notes: VH/VL only
# B15: 374_H07 (antibody, V domains shown)
# VH: B1 VH with S30D, D31S, S33G, G50N, S59G
# VL: B1 VL with I30L, V33L, V47L, N93E
# notes: VH/VL only
# B16: 375_A02 (antibody, V domains shown)
# VH: B1 VH with D31S, G55S, N101T, A106H
# VL: not shown
# notes: VH/VL only
# B17: 375_D08 (antibody, V domains shown)
# VH: B1 VH with S33G, A49S, G55S, T58K, S59G
# VL: B1 VL with V33L, V47L, N93S
# notes: VH/VL only
# B18: 375_G07 (antibody, V domains shown)
# VH: B1 VH with S30D, D31S, G55S, N101T, A106H
# VL: B1 VL with I30L, T31S, V33L, R54L, N93D, T94L
# notes: VH/VL only
# B19: 374_H04 (antibody, V domains shown)
# VH: B1 VH with S30D, D31S, A49S, G55S
# VL: B1 VL with I30L, V33L, V47L, N93D, T94N
# notes: VH/VL only
# B20: 374_E09 (antibody, V domains shown)
# VH: B1 VH with A49S, T58K, S59G, N101T, A106H
# VL: B1 VL with I30V, V33L, N93D, T94S
# notes: VH/VL only
# B21: 376_B01 (antibody, V domains shown)
# VH: B1 VH with S30D, D31S, N101T, A106H
# VL: B1 VL with I30L, T94L
# notes: VH/VL only
# B22: 374_G06 (antibody, V domains shown)
# VH: B1 VH with D31S, S33G, N35H, G50S
# VL: B1 VL with I30L, T31S, V33L, V47L, A51V, N93D, T94L
# notes: VH/VL only
# B23: 374_G04 (antibody, V domains shown)
# VH: B1 VH with D31S, S59G
# VL: B1 VL with I30L, V33L, R54L, N93D, T94N
# notes: VH/VL only
# B24: 374_H03 (antibody, V domains shown)
# VH: B1 VH with D31S, S33G, A49S, G55S, T58K
# VL: B1 VL with I30L, T31S, N93D, T94S
# notes: VH/VL only
# B25: 375_A06 (antibody, V domains shown)
# VH: B1 VH with D31S, G55S, T58K, S59G, N101T, A106H
# VL: B1 VL with I30L, V47L, T52S, R54L, A55Q, N93S
# notes: VH/VL only
# B26: 376_A10 (antibody, V domains shown)
# VH: B1 VH with S33G, A49S, G50N, G55S, T58K, S59G
# VL: B1 VL with I30L, T31S, V33L, V47L, N93E, T94S
# notes: VH/VL only
# B27: 375_D12 (antibody, V domains shown)
# VH: B1 VH with S30D, D31S, S33G, A49S, G50S, G55S
# VL: B1 VL with I30L, N93E
# notes: VH/VL only
# B28: 375_E07 (antibody, V domains shown)
# VH: B1 VH with G55S, T58K, S59G
# VL: B1 VL with I30V, V33L, V47L, A50V, A51V, S53N, A55E, N93E
# notes: VH/VL only
# B29: 374_G07 (antibody, V domains shown)
# VH: B1 VH with D31S, A49S, G55S, T58K
# VL: B1 VL with T31S, V33L, V47L, N93D, T94S
# notes: VH/VL only
# B30: 376_A12 (antibody, V domains shown)
# VH: B1 VH with D31S, G50N, G55S, T58K, S59G
# VL: B1 VL with I30L, T31S, N93D
# notes: VH/VL only
# B31: 375_D05 (antibody, V domains shown)
# VH: B1 VH with D31S, G50S, G55S, A106H
# VL: B1 VL with I30V, T31S, V33L, V47L, R54L, A55H, N93D
# notes: VH/VL only
# B32: 375_C06 (antibody, V domains shown)
# VH: B1 VH with S30D, S33G, N35H, G50S, G55S
# VL: B1 VL with I30L, A51T, N93D, T94S
# notes: VH/VL only
# B33: 374_E11 (antibody, V domains shown)
# VH: B1 VH with D31S, S33G, A49S, G50N
# VL: B1 VL with I30V, V33L, N93D, T94S
# notes: VH/VL only
# B34: 375_B04 (antibody, V domains shown)
# VH: B1 VH with S30D, D31S, G50N, S59G, N101T, A106H
# VL: B1 VL with I30L, V33L, V47L, N93D, T94N
# notes: VH/VL only
# B35: 374_F04 (antibody, V domains shown)
# VH: B1 VH with D31S, S33G, A49S, G55S, T58K
# VL: B1 VL with I30L, V47L, T94S
# notes: VH/VL only
# B36: 374_F10 (antibody, V domains shown)
# VH: B1 VH with D31S, A49S
# VL: B1 VL with I30L, T31S, V33L, N93D, T94N
# notes: VH/VL only
# Molecular target: T1, biotinylated goat anti-human kappa light chain
# T1 construct: Positive control of the ELISA
# Assay: ELISA; positive control
# How it was run: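 ELISA measured binding of ACVR2A-specific monoclonal antibodies to human and mouse ACVR2A. Biotinylated goat anti-human kappa light chain served as positive control and human Fc as negative control.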
# Note: test concentration or dose not given here.
row,optical density [OD],Binder
1,3.2,B1
2,3.04,B2
3,3.16,B3
4,3.27,B4
5,3.11,B5
6,3.08,B6
7,3.25,B7
8,3.09,B8
9,3.26,B9
10,3.15,B10
11,3.26,B11
12,3.03,B12
13,3.12,B13
14,3.12,B14
15,2.97,B15
16,3.07,B16
17,3.3,B17
18,3.2,B18

row,optical density [OD],Binder
1,3.19,B19
2,3.16,B20
3,3.24,B21
4,3.29,B22
5,3.02,B23
6,3.06,B24
7,3.11,B25
8,3.17,B26
9,3.23,B27
10,3.06,B28
11,3.26,B29
12,3.22,B30
13,3.21,B31
14,3.29,B32
15,3.34,B33
16,3.26,B34
17,3.23,B35
18,3.28,B36

# Molecular target: mouse ACVR2A (mouse, UniProt P27038 20-135, limits assumed)
# Sequence (P27038 20-135 limits assumed): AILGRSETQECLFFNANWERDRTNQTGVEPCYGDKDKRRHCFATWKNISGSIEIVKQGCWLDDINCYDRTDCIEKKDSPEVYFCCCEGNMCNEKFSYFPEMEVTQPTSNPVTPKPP
# Assay: ELISA
# How it was run: (§1)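 mAb binding by ELISA; antigens: hu ACVR2A, mu ACVR2A; pos ctrl biotinylated goat anti-hu kappa LC; neg ctrl hu Fc.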
row,optical density [OD],Binder
1,3.58,B1
2,3.26,B2
3,3.74,B3
4,3.33,B4
5,3.63,B5
6,3.26,B6
7,3.63,B7
8,3.27,B8
9,3.52,B9
10,3.61,B10
11,3.1,B11
12,3.6,B12
13,3.58,B13
14,3.69,B14
15,3.25,B15
16,3.18,B16
17,3.4,B17
18,3.67,B18

row,optical density [OD],Binder
1,3.31,B19
2,3.58,B20
3,3.67,B21
4,3.42,B22
5,2.32,B23
6,3.27,B24
7,3.71,B25
8,3.64,B26
9,3.16,B27
10,3.81,B28
11,3.72,B29
12,3.34,B30
13,3.61,B31
14,3.21,B32
15,3.59,B33
16,3.73,B34
17,3.65,B35
18,3.45,B36

# Molecular target: human ACVR2A (human, UniProt P27037 20-135, limits assumed)
# Sequence (P27037 20-135 limits assumed): as the sequence (P27038 20-135 limits assumed) above, with R20K, I73V counted along it
# Assay: ELISA
# How it was run: as §1
row,optical density [OD],Binder
1,3.63,B1
2,3.25,B2
3,3.69,B3
4,3.66,B4
5,3.16,B5
6,3.3,B6
7,3.56,B7
8,3.31,B8
9,3.5,B9
10,3.66,B10
11,3.26,B11
12,3.29,B12
13,3.59,B13
14,3.72,B14
15,3.24,B15
16,2.98,B16
17,3.29,B17
18,3.63,B18

row,optical density [OD],Binder
1,3.28,B19
2,3.67,B20
3,3.28,B21
4,3.26,B22
5,2.1,B23
6,3.27,B24
7,3.65,B25
8,3.68,B26
9,3.24,B27
10,3.68,B28
11,3.63,B29
12,3.7,B30
13,3.46,B31
14,2.65,B32
15,3.61,B33
16,3.69,B34
17,3.58,B35
18,3.21,B36
